# Reference: article PMC2679190
# Target: MyBPC1 (Myosin Binding Protein C1) (UniProt Q00872)
# Chain of UniProt Q00872 (Q00872 whole entry): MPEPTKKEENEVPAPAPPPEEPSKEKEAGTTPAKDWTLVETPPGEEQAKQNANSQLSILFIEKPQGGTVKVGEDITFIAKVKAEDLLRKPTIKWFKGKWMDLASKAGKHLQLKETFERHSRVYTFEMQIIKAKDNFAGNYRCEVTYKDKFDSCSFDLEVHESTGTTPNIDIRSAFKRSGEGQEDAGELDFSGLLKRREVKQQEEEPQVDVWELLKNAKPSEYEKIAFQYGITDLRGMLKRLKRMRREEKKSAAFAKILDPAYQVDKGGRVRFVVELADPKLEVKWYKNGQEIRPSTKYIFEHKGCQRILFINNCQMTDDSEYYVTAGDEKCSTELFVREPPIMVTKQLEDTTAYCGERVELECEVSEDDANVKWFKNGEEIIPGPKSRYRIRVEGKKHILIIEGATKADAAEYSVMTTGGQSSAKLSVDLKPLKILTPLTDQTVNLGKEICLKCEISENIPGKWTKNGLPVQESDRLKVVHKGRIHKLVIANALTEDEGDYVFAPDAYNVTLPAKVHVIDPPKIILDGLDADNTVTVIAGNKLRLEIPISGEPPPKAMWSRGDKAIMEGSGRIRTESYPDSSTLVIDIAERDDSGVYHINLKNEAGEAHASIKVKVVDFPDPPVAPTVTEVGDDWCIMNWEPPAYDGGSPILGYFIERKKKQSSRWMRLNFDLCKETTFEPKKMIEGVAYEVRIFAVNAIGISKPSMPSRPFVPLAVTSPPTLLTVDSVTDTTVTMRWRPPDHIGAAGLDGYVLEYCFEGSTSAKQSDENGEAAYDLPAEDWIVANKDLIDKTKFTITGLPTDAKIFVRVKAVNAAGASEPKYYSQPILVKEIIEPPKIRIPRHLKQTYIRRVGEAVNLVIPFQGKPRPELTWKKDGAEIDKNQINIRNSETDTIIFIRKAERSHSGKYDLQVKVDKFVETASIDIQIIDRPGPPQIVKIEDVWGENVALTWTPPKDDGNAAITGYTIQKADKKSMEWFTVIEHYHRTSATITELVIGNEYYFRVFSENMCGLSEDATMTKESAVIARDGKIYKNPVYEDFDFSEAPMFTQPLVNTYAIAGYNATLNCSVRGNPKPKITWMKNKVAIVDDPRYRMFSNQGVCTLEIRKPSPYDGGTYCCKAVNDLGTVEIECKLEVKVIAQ
row,"rescue of HA-MyBPC1 from proteasome degradation in co-transfected HEK293T cells (MyBPC1 level by western blot, rescue by wild-type USP25m = 1)",Substance
1,2 fold,"USP25m ΔUIM1 (Δ96-115 aa, inclusive) (enzyme)"
2,< 8 fold,"USP25m ΔUBA-UIM1-UIM2 (Δ19-141 aa, inclusive) (enzyme)"
3,3 fold,"USP25m ΔUBA (Δ19-58 aa, inclusive) (enzyme)"
